Tests used:
[1] = molecular target: T1, Rx1(1–489)WT (Solanum tuberosum, UniProt Q9XGF5); test: time-resolved FRET of DNA bending; format: biochemical; conditions: 20-bp end-labelled dsDNA (50 nM), 1.5 uM protein, 60 mM NaCl, room temperature; activator of DNA bending, P-loop dependent
T1 construct: gene rx; CC-NB-ARC region, residues 1-489, LRR domain absent; pET32c, hexahistidine tag
T1 sequence (Q9XGF5 1-489): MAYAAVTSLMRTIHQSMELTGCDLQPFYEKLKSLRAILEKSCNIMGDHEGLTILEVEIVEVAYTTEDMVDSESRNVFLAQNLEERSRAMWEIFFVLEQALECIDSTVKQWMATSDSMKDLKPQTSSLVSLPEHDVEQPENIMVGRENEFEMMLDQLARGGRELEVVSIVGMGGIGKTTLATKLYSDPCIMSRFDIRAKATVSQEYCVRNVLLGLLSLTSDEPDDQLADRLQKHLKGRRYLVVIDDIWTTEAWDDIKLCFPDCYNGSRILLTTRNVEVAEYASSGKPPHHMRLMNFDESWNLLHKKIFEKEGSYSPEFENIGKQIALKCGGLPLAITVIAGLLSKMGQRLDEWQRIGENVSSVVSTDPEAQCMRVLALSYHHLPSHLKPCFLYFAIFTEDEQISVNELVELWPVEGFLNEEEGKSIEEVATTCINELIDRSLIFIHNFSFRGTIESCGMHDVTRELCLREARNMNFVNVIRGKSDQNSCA

[2] = molecular target: T2, Orc1-1;Orc1-3 (Sulfolobus solfataricus;Sulfolobus …, UniProt Q980N4;Q97WM8 1-397;1-394, |); test: P1 nuclease sensitivity; sensitivity indistinguishable from Rx1(1-489)WT; EMSA: 0.15 nM 32P nucleic acid, 20 mM Tris-HCl pH 8.0, 60 mM NaCl, 2 mM EDTA, 1 mM DTT, 10% glycerol, 0.1 mg/ml BSA, 20 min on ice; FRET: 1.5 uM protein, 50 nM; conditions: protein: recombinant;recombinant; tags: ;; copies: 1;1; label: 32P 5' end of strand 1; blunt
T2 sequence 1: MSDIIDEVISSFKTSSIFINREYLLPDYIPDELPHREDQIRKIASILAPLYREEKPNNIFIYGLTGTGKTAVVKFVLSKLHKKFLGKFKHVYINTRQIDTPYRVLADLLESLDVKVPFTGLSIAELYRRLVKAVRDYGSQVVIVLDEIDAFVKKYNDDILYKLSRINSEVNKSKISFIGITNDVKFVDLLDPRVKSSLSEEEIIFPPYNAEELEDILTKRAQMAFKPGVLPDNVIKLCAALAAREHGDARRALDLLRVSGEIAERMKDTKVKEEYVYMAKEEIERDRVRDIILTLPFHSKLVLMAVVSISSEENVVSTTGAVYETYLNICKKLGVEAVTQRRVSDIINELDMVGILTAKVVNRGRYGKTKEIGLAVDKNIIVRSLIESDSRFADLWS
T2 sequence 2: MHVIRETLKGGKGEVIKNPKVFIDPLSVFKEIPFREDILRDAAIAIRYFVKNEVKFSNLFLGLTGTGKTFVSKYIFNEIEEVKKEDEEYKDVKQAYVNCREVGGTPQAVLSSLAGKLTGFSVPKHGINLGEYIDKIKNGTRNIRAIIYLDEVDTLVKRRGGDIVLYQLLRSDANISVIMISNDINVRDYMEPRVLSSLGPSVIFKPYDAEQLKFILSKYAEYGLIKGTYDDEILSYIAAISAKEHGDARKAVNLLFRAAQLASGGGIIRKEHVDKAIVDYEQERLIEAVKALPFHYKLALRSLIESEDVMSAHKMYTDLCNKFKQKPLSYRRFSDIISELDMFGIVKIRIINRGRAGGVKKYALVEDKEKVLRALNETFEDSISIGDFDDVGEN

[3] = molecular target: T3, Rx1(1-489) WT (CC-NB-ARC) (potato (introgressed from Solanum …, UniProt Q9XGF5 1-489)); test: P1 nuclease sensitivity; no nucleotide; local melting; EMSA: 0.15 nM 32P nucleic acid, 20 mM Tris-HCl pH 8.0, 60 mM NaCl, 2 mM EDTA, 1 mM DTT, 10% glycerol, 0.1 mg/ml BSA, 20 min on ice; FRET: 1.5 uM protein, 50 nM; conditions: protein: recombinant; tags: His6 (pET32c); label: 32P 5' end of strand 1; blunt
T3 sequence: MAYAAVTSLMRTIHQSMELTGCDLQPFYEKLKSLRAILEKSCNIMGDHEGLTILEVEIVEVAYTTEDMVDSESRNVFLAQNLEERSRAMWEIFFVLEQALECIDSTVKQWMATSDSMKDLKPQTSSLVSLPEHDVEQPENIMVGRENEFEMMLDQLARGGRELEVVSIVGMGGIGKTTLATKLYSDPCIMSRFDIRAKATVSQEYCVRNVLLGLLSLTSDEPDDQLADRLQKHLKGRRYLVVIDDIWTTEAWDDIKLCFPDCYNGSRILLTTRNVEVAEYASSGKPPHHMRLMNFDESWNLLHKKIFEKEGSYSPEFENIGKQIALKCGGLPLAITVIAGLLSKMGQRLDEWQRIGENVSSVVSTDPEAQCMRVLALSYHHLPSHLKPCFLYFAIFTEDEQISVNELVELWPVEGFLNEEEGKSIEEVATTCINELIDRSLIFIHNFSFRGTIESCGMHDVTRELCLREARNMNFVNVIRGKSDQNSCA

[4] = molecular target: T3, Rx1(1-489) WT (CC-NB-ARC); test: EMSA; apparent Kd in Table 1 (values not in material); text: submicromolar; EMSA: 0.15 nM 32P nucleic acid, 20 mM Tris-HCl pH 8.0, 60 mM NaCl, 2 mM EDTA, 1 mM DTT, 10% glycerol, 0.1 mg/ml BSA, 20 min on ice; FRET: 1.5 uM protein, 50 nM; conditions: protein: recombinant; tags: His6 (pET32c); label: 32P 5' end; blunt
[5] = molecular target: T3, Rx1(1-489) WT (CC-NB-ARC); test: EMSA; higher affinity than dsDNA or ssRNA; Kd in Table 1 not in material; EMSA: 0.15 nM 32P nucleic acid, 20 mM Tris-HCl pH 8.0, 60 mM NaCl, 2 mM EDTA, 1 mM DTT, 10% glycerol, 0.1 mg/ml BSA, 20 min on ice; FRET: 1.5 uM protein, 50 nM; conditions: protein: recombinant; tags: His6 (pET32c); label: 32P 5' end; single strand
[6] = molecular target: T3, Rx1(1-489) WT (CC-NB-ARC); test: EMSA; higher affinity than F12-ds/ss; EMSA: 0.15 nM 32P nucleic acid, 20 mM Tris-HCl pH 8.0, 60 mM NaCl, 2 mM EDTA, 1 mM DTT, 10% glycerol, 0.1 mg/ml BSA, 20 min on ice; FRET: 1.5 uM protein, 50 nM; conditions: protein: recombinant; tags: His6 (pET32c); label: 32P 5' end of strand 1; fork 1:2, two single-stranded arms
[7] = molecular target: T3, Rx1(1-489) WT (CC-NB-ARC); test: EMSA; affinity similar to dsDNA; Kd in Table 1 not in material; EMSA: 0.15 nM 32P nucleic acid, 20 mM Tris-HCl pH 8.0, 60 mM NaCl, 2 mM EDTA, 1 mM DTT, 10% glycerol, 0.1 mg/ml BSA, 20 min on ice; FRET: 1.5 uM protein, 50 nM; conditions: protein: recombinant; tags: His6 (pET32c); label: 32P 5' end; single strand
[8] = molecular target: T4, Rx1(1-489) K176R (potato (introgressed from Solanum …, UniProt Q9XGF5 1-489, K176R)); test: time-resolved FRET (bending); no nucleotide; bends similarly to WT; EMSA: 0.15 nM 32P nucleic acid, 20 mM Tris-HCl pH 8.0, 60 mM NaCl, 2 mM EDTA, 1 mM DTT, 10% glycerol, 0.1 mg/ml BSA, 20 min on ice; FRET: 1.5 uM protein, 50 nM; conditions: protein: recombinant; tags: His6 (pET32c); label: fluorescein donor and tetramethylrhodamine acceptor, end labels; blunt
T4 sequence: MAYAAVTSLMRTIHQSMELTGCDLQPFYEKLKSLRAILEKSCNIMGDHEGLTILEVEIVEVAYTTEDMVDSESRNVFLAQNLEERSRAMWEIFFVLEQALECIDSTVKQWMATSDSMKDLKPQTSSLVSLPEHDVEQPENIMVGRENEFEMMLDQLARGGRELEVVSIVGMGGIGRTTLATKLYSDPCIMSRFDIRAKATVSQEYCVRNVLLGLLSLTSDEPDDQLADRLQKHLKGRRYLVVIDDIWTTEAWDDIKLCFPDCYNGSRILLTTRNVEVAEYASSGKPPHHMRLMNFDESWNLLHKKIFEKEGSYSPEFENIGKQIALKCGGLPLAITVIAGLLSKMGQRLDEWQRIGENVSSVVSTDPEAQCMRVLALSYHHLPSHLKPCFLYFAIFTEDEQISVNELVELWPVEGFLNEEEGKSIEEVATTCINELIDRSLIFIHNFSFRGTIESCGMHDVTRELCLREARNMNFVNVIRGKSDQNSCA

[9] = molecular target: T3, Rx1(1-489) WT (CC-NB-ARC); test: time-resolved FRET (bending); no nucleotide; bend angle 42 degrees; EMSA: 0.15 nM 32P nucleic acid, 20 mM Tris-HCl pH 8.0, 60 mM NaCl, 2 mM EDTA, 1 mM DTT, 10% glycerol, 0.1 mg/ml BSA, 20 min on ice; FRET: 1.5 uM protein, 50 nM; conditions: protein: recombinant; tags: His6 (pET32c); label: fluorescein donor and tetramethylrhodamine acceptor, end labels; blunt

In the case of Nc1ncnc2c1ncn2[C@@H]1O[C@H](COP(=O)(O)OP(=O)(O)OP(=O)(O)O)[C@@H](O)[C@H]1O [ATP], the “time-resolved FRET of DNA bending” value [1] is reported as “Notably ATP, but not ADP, strongly increased the contribution of the 129-ps lifetime”.

B1: C3/mORB dual site of oriC2 (dsDNA)
DNA 1: CTCAATACAATTGTCTCTGTGTAAATTTCCTACGTTTCATCTGAAAATCTAGCTATTAGAGCTTGGTTTA
DNA 2: TAAACCAAGCTCTAATAGCTAGATTTTCAGATGAAACGTAGGAAATTTACACAGAGACAATTGTATTGAG
B1: binds [2]; binds [3].

B2: SS1/SS2 dsDNA (dsDNA)
DNA 1: TGGGTCAACGTGGGCAAAGATGTCCTAGCAATGTAATCGTCTATGACGTT
DNA 2: AACGTCATAGACGATTACATTGCTAGGACATCTTTGCCCACGTTGACCCA
B2: binds [4].

B3: SS1 ssDNA (ssDNA)
DNA: TGGGTCAACGTGGGCAAAGATGTCCTAGCAATGTAATCGTCTATGACGTT
B3: binds [5].

B4: F12-ss/ss (structured_DNA)
DNA 1: GACGCTGCCGAATTCTGGCTTGCTAGGACATCTTTGCCCACGTTGACCC
DNA 2: TGGGTCAACGTGGGCAAAGATGTCCTAGCAATGTAATCGTCTATGACGTT
B4: binds [6].

B5: SS1 ssRNA (ssRNA)
RNA: UGGGUCAACGUGGGCAAAGAUGUCCUAGCAAUGUAAUCGUCUAUGACGUU
B5: binds [7].

B6: 20-bp FRET duplex (dsDNA)
DNA 1: TGGGTCAACGTGGGCAAAGA
DNA 2: TCTTTGCCCACGTTGACCCA
B6: binds [8]; binds [9].
